Assay results published in patent US20260029420A1 (Hoffmann-La Roche, published 2026).

Legend:
Human_CB2-pANITA3.1 = target: T1, Human_CB2-pANITA3.1 (human); assay: Western blot, cell lysate
T1 construct: Expressed on transfected HEK293 cells; tested on fixed cells (IF) or in lysate (WB, IP); also called pANITA3.1 hCB2 (JB175); hCB2 (JB175)
Description: For Western blot analysis, cells were collected using enzyme free dissociation buffer (Cell dissociation buffer enzyme-free Hanks'-based, Gibco), and washed two times with PBS. To prepare cell lysate, 10⁶ cells were lysed with 0.1 ml of lysis buffer (1% NP40, 10% glycerol, 2 mM EDTA, 137 mM NaCl, 20 mM TrisHCl, pH8, Protease Inhibitors) for 10 min on ice. The lysate was cleared by centrifugation at 20′000 g for 5 min. For SDS-PAGE cell lysate was resolved on precast 4-12% gradient gels (NuPAGE® Novex 4-12% Bis-Tris Gel, Invitrogen) with MES running buffer according to the manufacturer's directions. The separation of proteins was visualized by Colloidal Blue staining. The proteins were electrophoretically transferred to nitrocellulose membrane using a dry-blotting system (iBlot, Invitrogen). After blocking the membrane for 16 h in blocking buffer (5% Milk in PBS) at 4° C., specific proteins were detected with appropriate dilutions of mAbs in blocking buffer for 1 h at approximately 20° C. The membrane was then washed four times for 5 minutes in blocking buffer and incubated with horseradish peroxidase conjugated anti-mouse IgG mAb (GAM/IgG (g-chain)/HRP, Sigma, A9917) diluted 1:10'000 in blocking buffer at approximately 20° C. for 1 h. After washing again, blots were developed using ECL Western blotting detection reagents (ECL Western Blotting Substrate, Pierce) to visualize bands.

human CB2 (full length) = target: T2, human CB2 (full length) (human, UniProt P34972 1-360); assay: flow cytometry, CHO-DUKX_HOMSA_CNR2_Clone_90_CRE-Luc cells against CHO-DUKX parental cells
T2 construct: whole, on cells; In Western blot and immunoprecipitation the protein stood in cell lysate; also called hCB2; CHODukx CRE hCB2 Cl.90
Text: For detection an F(ab)₂ goat-anti Mouse IgG₃ PE antibody was used.

Mouse_CB2-pANITA3.1 = target: T3, Mouse_CB2-pANITA3.1 (mouse); assay: immunofluorescence, fixed cells
T3 construct: Fusion of the mouse CB2 N-terminal extracellular domain with mouse glycophorin A transmembrane and His-tagged cytoplasmic domains; Expressed on transfected HEK293 cells; also called pANITA3.1 mCB2 (JB176); mCB2 (JB176)
Description: (§1) For IF analysis, methanol-fixed cells were incubated for 20 min in a humid chamber at 37° C. with the respective hCB2 and mCB2 clones. After rinsing twice and washing for 15 min in PBS, 125 μg/ml FITC-conjugated […] anti-mouse IgG antibodies (RAM/IgG (H+L)/FITC, Nordic

mouse CB2 (full length) = target: T4, mouse CB2 (full length) (mouse, UniProt P47936 1-347); assay: immunofluorescence, fixed cells
T4 construct: whole, on cells; In Western blot and immunoprecipitation the protein stood in cell lysate; also called mCB2; CHO-A2 mCB2
Description: as §1

human CB1 (full length) = target: T5, human CB1 (full length) (human, UniProt P21554 1-472); assay: immunofluorescence, fixed cells
T5 construct: whole, on cells; In Western blot and immunoprecipitation the protein stood in cell lysate; also called hCB1; CHODukx CRE hCB1 Cl.20
Description: as §1

T1 sequence (chain, as listed by the source): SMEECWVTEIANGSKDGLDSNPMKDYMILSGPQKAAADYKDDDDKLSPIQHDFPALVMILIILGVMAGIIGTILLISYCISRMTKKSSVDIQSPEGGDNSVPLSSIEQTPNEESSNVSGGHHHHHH
T3 sequence (chain, as listed by the source): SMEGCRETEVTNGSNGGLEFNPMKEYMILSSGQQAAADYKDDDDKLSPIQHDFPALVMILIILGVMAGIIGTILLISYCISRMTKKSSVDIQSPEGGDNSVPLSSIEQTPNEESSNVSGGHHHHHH
T4 sequence (P47936 whole entry): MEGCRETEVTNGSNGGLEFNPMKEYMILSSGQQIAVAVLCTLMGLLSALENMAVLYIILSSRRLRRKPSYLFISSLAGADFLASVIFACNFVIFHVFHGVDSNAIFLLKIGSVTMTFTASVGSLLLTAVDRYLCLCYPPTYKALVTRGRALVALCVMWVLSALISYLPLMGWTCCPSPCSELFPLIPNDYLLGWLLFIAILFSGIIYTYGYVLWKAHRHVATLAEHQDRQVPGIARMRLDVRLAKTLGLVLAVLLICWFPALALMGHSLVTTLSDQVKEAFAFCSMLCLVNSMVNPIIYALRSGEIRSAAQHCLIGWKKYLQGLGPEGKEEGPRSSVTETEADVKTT
T2 sequence (P34972 whole entry): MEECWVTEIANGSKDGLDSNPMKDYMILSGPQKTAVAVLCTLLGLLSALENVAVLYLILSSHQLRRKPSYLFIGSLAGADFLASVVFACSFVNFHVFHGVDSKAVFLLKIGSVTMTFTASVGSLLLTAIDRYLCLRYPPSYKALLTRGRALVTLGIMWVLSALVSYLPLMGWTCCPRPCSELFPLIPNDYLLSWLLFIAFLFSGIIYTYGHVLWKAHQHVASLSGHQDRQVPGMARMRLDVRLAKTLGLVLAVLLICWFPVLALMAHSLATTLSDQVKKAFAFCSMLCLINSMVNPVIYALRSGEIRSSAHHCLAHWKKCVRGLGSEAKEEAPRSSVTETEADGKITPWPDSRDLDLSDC
T5 sequence (P21554 whole entry): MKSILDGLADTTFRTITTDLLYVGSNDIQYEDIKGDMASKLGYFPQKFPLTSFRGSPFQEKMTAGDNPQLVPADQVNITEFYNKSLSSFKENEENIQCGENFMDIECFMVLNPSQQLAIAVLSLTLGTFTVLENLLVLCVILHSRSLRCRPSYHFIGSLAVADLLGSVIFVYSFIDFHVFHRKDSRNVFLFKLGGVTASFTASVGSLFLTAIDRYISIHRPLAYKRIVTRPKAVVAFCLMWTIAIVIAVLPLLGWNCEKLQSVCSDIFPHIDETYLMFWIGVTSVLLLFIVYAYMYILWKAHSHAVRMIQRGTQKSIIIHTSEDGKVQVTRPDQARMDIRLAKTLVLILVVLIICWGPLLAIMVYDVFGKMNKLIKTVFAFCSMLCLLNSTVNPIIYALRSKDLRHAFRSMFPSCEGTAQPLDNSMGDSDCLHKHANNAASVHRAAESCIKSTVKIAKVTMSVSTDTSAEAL

B1: Anti-CB2 clone 1/622 (antibody, IgG3, V domains shown)
VH: EVQLQQSGPELVKPGASVKISCKTSGYTFTEYTMHWVRQSHGKSLEWIGGIDRYNGDTYYNQKFKDKATLTVDRSSSTAYMELRSLTSEDSAVYFCARNGAMDYWGQGISVTVSS
VL: DVVMTQTPLSLPVSLGDQASISCRSSQSLVHSNGNTYLHWFLQKPGQSPKLLIYKVSIRFSGVPDRFSGSGSGTDFTLKISRVEAEDLGVYFCSQSTHVPPLTFGAGTKLELKR
Human_CB2-pANITA3.1
  binding result: binds
Human CB2 (full length)
  signal to background ratio: 10
Mouse_CB2-pANITA3.1
  binding result: no binding
Mouse CB2 (full length)
  binding result: no binding
Human CB1 (full length)
  binding result: no binding
